According to publication PMC11561763:

Target: glutathione S-transferase fusion from pGEX-6P1 possessing a C-terminal optimized tetracysteine motif (GST-TC12)
Test: SEC; Superdex 75 Increase 10/300, 50 mM Tris pH 7.5, 150 mM NaCl; quenched one-pot ligation mixtures (Ub or SUMO, SrtCrAsH, eSrtA, GST-TC12); peaks collected and analysed by ESI-MS

glutathione S-transferase fusion from pGEX-6P1 possessing a C-terminal optimized tetracysteine motif (GST-TC12), sequence (P08515 2-218): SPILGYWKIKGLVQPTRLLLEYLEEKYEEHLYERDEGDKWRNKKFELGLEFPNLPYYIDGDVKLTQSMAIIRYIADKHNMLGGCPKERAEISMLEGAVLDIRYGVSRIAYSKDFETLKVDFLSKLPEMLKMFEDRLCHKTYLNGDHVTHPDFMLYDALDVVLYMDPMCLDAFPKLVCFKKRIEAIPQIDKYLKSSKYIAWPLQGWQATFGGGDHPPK

stoichiometry N: 2
Substance: glutathione S-transferase fusion from pGEX-6P1 possessing a C-terminal optimized tetracysteine motif (GST-TC12) (natural protein)
